The target in the test is toluene 4-monooxygenase hydroxylase (T4moH), (TmoA-TmoB-TmoE)2, with C-terminally truncated TmoA and TmoE (UniProt Q00456).

For one substance, apparent KM for T4moC in steady-state toluene hydroxylation (4 uM T4moH, 0.4 uM T4moF), before the increase caused by T4moD and apparent KM for T4moC in steady-state toluene hydroxylation (4 uM T4moH, 0.4 uM T4moF), increased by inhibiting T4moD results are on record in PMC4200526.

Chain of UniProt Q00456 (Q00456 1-491, chain 1 of 3): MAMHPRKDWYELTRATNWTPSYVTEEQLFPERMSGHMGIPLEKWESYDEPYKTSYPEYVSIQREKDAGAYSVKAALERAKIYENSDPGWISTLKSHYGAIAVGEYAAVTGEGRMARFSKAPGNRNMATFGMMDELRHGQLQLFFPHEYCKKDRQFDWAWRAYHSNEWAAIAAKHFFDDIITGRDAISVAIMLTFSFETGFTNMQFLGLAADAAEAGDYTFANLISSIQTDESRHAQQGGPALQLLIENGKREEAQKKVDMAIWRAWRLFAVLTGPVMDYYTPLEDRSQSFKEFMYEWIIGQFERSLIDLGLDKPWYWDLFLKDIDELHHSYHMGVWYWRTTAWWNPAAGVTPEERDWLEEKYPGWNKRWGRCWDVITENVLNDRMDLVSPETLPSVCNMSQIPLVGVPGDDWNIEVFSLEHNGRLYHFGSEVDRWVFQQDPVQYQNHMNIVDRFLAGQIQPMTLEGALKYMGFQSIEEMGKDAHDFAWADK
Chain of UniProt Q00456 (Q00457 whole entry, chain 2 of 3, further chain, the tested form may be a part): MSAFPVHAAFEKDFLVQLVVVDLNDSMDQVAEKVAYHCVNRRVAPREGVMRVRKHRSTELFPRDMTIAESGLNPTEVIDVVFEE
Chain of UniProt Q00456 (Q00460 1-306, chain 3 of 3, further chain): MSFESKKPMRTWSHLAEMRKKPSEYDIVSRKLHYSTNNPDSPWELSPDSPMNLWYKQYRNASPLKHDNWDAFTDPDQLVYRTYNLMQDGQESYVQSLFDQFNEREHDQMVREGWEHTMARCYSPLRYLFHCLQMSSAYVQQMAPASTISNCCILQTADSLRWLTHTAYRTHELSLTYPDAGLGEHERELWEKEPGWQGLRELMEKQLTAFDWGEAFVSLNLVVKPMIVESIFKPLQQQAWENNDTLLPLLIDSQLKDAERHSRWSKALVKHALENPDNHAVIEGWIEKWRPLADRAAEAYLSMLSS

Take “T4moC, Rieske-type ferredoxin of toluene 4-monooxygenase, Cys7Ser/Cys84Ala/Cys85Ala variant (used for 4P1C) (from UniProt Q00458 8-112) (natural protein)”: the apparent KM for T4moC in steady-state toluene hydroxylation (4 uM T4moH, 0.4 uM T4moF), before the increase caused by T4moD came out at 3 µM and the apparent KM for T4moC in steady-state toluene hydroxylation (4 uM T4moH, 0.4 uM T4moF), increased by inhibiting T4moD was 16 µM.
